Assay results from patent US20230406921A1 (MABWELL SHANGHAI BIOSCIENCE, published 2023).

B1: hz140-Hm1/hz182-L (antibody, V domains shown)
VH: QVQLVQSGAEVKKPGASVKVSCKASGYTFTNYVMHWVRQAPGQRLEWMGYINPYNDGIKYNEKFTGRVTITRDTSASTAYMELSSLRSEDTAVYYCAREGDFYANYGRLGFAYWGQGTLVTVSS
VL: DIQMTQSPSSLSASVGDRVTITCRASQDISNYLNWYQQKPGKAPKLLLYYTSRLHSGVPSRFSGSGSGTDYTLTISSLQPEDFATYFCQQGAGRPYTFGGGTKVEIK
B2: hz140-Hm6/hz182-L (antibody, V domains shown)
VH: QVQLVQSGAEVKKPGASVKVSCKASGYKFTNYVMHWVRQAPGQRLEWMGYINPGNDGIKYNEKFTGRVTITRDTSASTAYMELSSLRSEDTAVYYCAREGDFYANYGRLGFAYWGQGTLVTVSS
VL: DIQMTQSPSSLSASVGDRVTITCRASQDISNYLNWYQQKPGKAPKLLLYYTSRLHSGVPSRFSGSGSGTDYTLTISSLQPEDFATYFCQQGAGRPYTFGGGTKVEIK
B3: hz140-Hm5/hz182-L (antibody, V domains shown)
VH: QVQLVQSGAEVKKPGASVKVSCKASGYKFTNYVMHWVRQAPGQRLEWMGWINPYNDGIKYNEKFTGRVTITRDTSASTAYMELSSLRSEDTAVYYCAREGDFYANYGRLGFAYWGQGTLVTVSS
VL: DIQMTQSPSSLSASVGDRVTITCRASQDISNYLNWYQQKPGKAPKLLLYYTSRLHSGVPSRFSGSGSGTDYTLTISSLQPEDFATYFCQQGAGRPYTFGGGTKVEIK
B4: hz140-Hm2/hz182-L (antibody, V domains shown)
VH: QVQLVQSGAEVKKPGASVKVSCKASGYKFTSYVMHWVRQAPGQRLEWMGYINPYNDGIKYNEKFTGRVTITRDTSASTAYMELSSLRSEDTAVYYCAREGDFYANYGRLGFAYWGQGTLVTVSS
VL: DIQMTQSPSSLSASVGDRVTITCRASQDISNYLNWYQQKPGKAPKLLLYYTSRLHSGVPSRFSGSGSGTDYTLTISSLQPEDFATYFCQQGAGRPYTFGGGTKVEIK
B5: hz140-Hm3/hz182-L (antibody, V domains shown)
VH: QVQLVQSGAEVKKPGASVKVSCKASGYKFTNYAMHWVRQAPGQRLEWMGYINPYNDGIKYNEKFTGRVTITRDTSASTAYMELSSLRSEDTAVYYCAREGDFYANYGRLGFAYWGQGTLVTVSS
VL: DIQMTQSPSSLSASVGDRVTITCRASQDISNYLNWYQQKPGKAPKLLLYYTSRLHSGVPSRFSGSGSGTDYTLTISSLQPEDFATYFCQQGAGRPYTFGGGTKVEIK
B6: hz140-Hm4/hz182-L (antibody, V domains shown)
VH: QVQLVQSGAEVKKPGASVKVSCKASGYKFTNYVMSWVRQAPGQRLEWMGYINPYNDGIKYNEKFTGRVTITRDTSASTAYMELSSLRSEDTAVYYCAREGDFYANYGRLGFAYWGQGTLVTVSS
VL: DIQMTQSPSSLSASVGDRVTITCRASQDISNYLNWYQQKPGKAPKLLLYYTSRLHSGVPSRFSGSGSGTDYTLTISSLQPEDFATYFCQQGAGRPYTFGGGTKVEIK
B7: hz140-Hm8/hz182-L (antibody, V domains shown)
VH: QVQLVQSGAEVKKPGASVKVSCKASGYKFTNYVMHWVRQAPGQRLEWMGYINPYNDGIKYNEKFTGRVTITRDTSASTAYMELSSLRSEDTAVYYCAREGDFYANYGRLGFDYWGQGTLVTVSS
VL: DIQMTQSPSSLSASVGDRVTITCRASQDISNYLNWYQQKPGKAPKLLLYYTSRLHSGVPSRFSGSGSGTDYTLTISSLQPEDFATYFCQQGAGRPYTFGGGTKVEIK
B8: hz140-Hm7/hz182-L (antibody, V domains shown)
VH: QVQLVQSGAEVKKPGASVKVSCKASGYKFTNYVMHWVRQAPGQRLEWMGYINPYNDGIKYNEKFQGRVTITRDTSASTAYMELSSLRSEDTAVYYCAREGDFYANYGRLGFAYWGQGTLVTVSS
VL: DIQMTQSPSSLSASVGDRVTITCRASQDISNYLNWYQQKPGKAPKLLLYYTSRLHSGVPSRFSGSGSGTDYTLTISSLQPEDFATYFCQQGAGRPYTFGGGTKVEIK

These binders were tested against T1, recombinant antigen of the extracellular region of CD47 (Sino Biological, Cat: 12283-H08H) (human, UniProt Q08722 19-139) (assay: Fortebio BLI, antibody on AHC sensor, CD47 extracellular region 100 nM;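 also: antibody held on the sensor through anti-human Fc capture, CD47 antigen in solution, association and dissociation phases each lasting 300 s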).
T1 construct: extracellular domain; also called recombinant CD47 extracellular region; CD47 recombinant protein
T1 sequence (Q08722 19-139 limits assumed): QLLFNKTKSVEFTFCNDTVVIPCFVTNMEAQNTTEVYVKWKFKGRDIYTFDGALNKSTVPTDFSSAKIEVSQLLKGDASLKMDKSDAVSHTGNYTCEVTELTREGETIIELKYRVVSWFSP
Method: The affinity between the obtained mutant antibody and the CD47 recombinant protein was determined by Fortebio. The antibody was immobilized on the surface of a sensor with the anti-human Fc capture antibody (AHC Sensor), and reacted with the recombinant antigen of the extracellular region of CD47 (with a working concentration of 100 nM) in the liquid phase. The duration for binding and dissociation was both 300 seconds. The kinetic parameters were determined.

Compared with B1, B2 is 5.1-fold higher in Kd: 1.67 nM for the first, 8.55 nM for the second. The first binds more tightly here.

Compared with B3, B4 is 4-fold lower in Kd: 6.82 nM for the first, 1.71 nM for the second.

First: B5
Second: B6
The Kd of the first is 1.7-fold higher: 10.3 nM for the first, 5.97 nM for the second. The second binds more tightly here.

B7 and B8 are within 1.5-fold of each other in Kd: 42.5 nM for the first, 61.8 nM for the second.

Going from B1 to B2, the koff rises from 0.000542 s⁻¹ to 0.00316 s⁻¹ (5.8-fold).

First: B3
Second: B4
The koff of the first is 1.9-fold higher: 0.00103 s⁻¹ for the first, 0.000541 s⁻¹ for the second.

Compared with B5, B6 is 1.8-fold lower in koff: 0.00308 s⁻¹ for the first, 0.00171 s⁻¹ for the second.

B7 and B8 are within 1.5-fold of each other in koff: 0.00907 s⁻¹ for the first, 0.00767 s⁻¹ for the second.

B1 and B2 are within 1.5-fold of each other in kon: 325000 M⁻¹ s⁻¹ for the first, 370000 M⁻¹ s⁻¹ for the second.

Going from B3 to B4, the kon rises from 151000 M⁻¹ s⁻¹ to 317000 M⁻¹ s⁻¹ (2.1-fold).

B5 and B6 are within 1.5-fold of each other in kon: 299000 M⁻¹ s⁻¹ for the first, 286000 M⁻¹ s⁻¹ for the second.

Going from B7 to B8, the kon falls from 213000 M⁻¹ s⁻¹ to 124000 M⁻¹ s⁻¹ (1.7-fold).
